Experimental data from PMC4109008.

Target: zipper-mEos3.2C (split site 164E)
Assay: split reporter (BiFC, NanoBiT); BiFC signal of E. coli cultures read in a plate reader with 480 nm excitation at different culture durations, normalised to OD600; zippers against mutated zippers

**Q.** Which complementation efficiency (intensity ratio of the specific BiFC signal by leucine zippers to the nonspecific signal via mutated leucine zippers) does the source give for “mEos3.2N-Zipper (split site 164E) (peptide)” here?
**A.** Its complementation efficiency (intensity ratio of the specific BiFC signal by leucine zippers to the nonspecific signal via mutated leucine zippers) is < 12.
